Here are results for 2 molecules from paper PMC5341729 (Molecular Biology of the Cell, 2017).

The target in assay [1] is T1, MYO10-TPRN^BAIT (taperin fused to MYO10^HMM) (mouse, UniProt A2AI08 1-749).
T1 sequence: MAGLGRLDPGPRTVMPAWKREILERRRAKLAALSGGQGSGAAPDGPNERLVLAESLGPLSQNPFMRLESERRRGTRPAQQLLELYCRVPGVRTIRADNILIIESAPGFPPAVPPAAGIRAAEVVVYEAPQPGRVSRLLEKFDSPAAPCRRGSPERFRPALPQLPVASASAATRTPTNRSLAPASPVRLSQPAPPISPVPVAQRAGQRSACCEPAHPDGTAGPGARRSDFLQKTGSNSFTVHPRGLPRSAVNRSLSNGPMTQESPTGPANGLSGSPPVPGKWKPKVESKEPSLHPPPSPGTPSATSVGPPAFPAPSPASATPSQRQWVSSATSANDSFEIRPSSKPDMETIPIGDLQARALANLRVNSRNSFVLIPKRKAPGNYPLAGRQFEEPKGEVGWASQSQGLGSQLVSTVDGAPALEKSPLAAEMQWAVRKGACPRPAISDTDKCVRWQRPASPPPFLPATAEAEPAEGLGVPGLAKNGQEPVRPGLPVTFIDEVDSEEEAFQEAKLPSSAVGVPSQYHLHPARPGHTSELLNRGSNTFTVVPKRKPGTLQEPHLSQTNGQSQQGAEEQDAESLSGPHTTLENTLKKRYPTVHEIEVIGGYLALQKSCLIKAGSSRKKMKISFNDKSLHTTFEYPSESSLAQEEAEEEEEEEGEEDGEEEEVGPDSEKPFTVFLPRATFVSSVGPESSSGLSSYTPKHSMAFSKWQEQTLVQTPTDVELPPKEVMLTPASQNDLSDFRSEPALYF
The assay is described as follows: NanoSPD.

Assay [2] deals with T2, MYO10-MYO7A(TAIL)^BAIT (EGFP-MYO10^HMM fused to the tail domain of MYO7A) (UniProt Q13402 858-2215).
T2 sequence: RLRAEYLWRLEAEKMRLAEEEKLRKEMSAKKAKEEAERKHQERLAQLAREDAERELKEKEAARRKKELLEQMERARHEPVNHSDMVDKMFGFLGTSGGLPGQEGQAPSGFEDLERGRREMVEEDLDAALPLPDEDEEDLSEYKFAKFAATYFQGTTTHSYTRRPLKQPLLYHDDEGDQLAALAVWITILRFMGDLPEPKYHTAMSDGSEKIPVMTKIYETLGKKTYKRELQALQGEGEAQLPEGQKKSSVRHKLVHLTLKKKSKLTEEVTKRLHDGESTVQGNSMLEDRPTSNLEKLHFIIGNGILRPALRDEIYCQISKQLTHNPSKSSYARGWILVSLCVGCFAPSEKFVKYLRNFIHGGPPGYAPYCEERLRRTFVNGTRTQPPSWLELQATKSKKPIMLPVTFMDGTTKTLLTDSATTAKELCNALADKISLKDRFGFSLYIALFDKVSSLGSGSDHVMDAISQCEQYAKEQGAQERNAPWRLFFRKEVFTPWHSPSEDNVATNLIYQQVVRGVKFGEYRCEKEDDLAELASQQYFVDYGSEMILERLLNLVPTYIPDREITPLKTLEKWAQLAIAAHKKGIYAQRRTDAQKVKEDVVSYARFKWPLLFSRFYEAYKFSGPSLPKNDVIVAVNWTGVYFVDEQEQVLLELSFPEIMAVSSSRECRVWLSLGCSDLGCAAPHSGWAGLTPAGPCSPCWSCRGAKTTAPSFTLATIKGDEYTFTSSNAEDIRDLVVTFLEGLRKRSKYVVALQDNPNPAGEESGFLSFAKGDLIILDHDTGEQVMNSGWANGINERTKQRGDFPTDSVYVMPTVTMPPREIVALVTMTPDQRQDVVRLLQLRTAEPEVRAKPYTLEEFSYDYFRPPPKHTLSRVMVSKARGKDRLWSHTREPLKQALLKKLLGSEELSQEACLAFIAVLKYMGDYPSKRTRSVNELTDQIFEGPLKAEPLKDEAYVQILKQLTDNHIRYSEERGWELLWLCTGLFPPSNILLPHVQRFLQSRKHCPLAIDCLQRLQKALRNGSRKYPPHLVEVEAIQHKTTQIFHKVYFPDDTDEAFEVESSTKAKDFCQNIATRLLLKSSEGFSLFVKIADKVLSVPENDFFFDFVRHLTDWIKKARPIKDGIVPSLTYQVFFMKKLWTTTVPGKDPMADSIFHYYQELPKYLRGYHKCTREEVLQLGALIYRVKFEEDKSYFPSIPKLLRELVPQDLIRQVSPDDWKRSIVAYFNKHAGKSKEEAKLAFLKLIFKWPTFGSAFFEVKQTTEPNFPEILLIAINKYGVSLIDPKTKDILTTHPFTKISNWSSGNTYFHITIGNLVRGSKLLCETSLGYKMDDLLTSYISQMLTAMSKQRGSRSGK
The assay is described as follows: NanoSPD.

B1: CHD4(561-936)^PREY (domain or fragment)
chain: QVMFRNYQRKNDMDEPPSGDFGGDEEKSRKRKNKDPKFAEMEERFYRYGIKPEWMMIHRILNHSVDKKGHVHYLIKWRDLPYDQASWESEDVEIQDYDLFKQSYWNHRELMRGEEGRPGKKLKKVKLRKLERPPETPTVDPTVKYERQPEYLDATGGTLHPYQMEGLNWLRFSWAQGTDTILADEMGLGKTVQTAVFLYSLYKEGHSKGPFLVSAPLSTIINWEREFEMWAPDMYVVTYVGDKDSRAIIRENEFSFEDNAIRGGKKASRMKKEASVKFHVLLTSYELITIDMAILGSIDWACLIVDEAHRLKNNQSKFFRVLNGYSLQHKLLLTGTPLQNNLEELFHLLNFLTPERFHNLEGFLEEFADIAKEDQI
Turning to B1, the “fold increase of prey fluorescence at filopodial tips against MYO10^(NO BAIT)” value in assay [1] came to 7 fold.

B2: mCherry-MYRIP (MYO7A-Rab interacting protein), MYRIP^PREY (natural protein)
chain: MGRKLDLSGLTDDETEHVLQVVQRDFNLRKKEEERLSELKQKLDEEGSKCSILSKHQQFVEHCCMRCCSPFTFLVNTKRQCGDCKFNVCKSCCSYQKHEKAWVCCVCQQARLLRAQSLEWFYNNVKSRFKRFGSAKVLKNLYRKHRLESGACFDILGGSLFESNLENEGSISGSDSTFYRQSEGHSVMDTLAVALRVAEEAIEEAISKAEAYGDSLDKQNEASYLRDHKEELTEELATTILQKIIRKQKSKSEQQVEEEPGWPHPQSCSTKVADEGTSASPGGYRAPAALWRSQSAFSITGEEALKTPPVEAPSRQPRDQGQHPRAESALPSWKSVDRLDETNLAPVLQSPDGNWVALKDGAPPPTRLLAKPKSGTFQALEVASSVASAYDEMGSDSEEDFDWSEALSKLCPRSRALPRNPQPQPTQAQSSDQGPIAASPSSALSPNPEAMCSDSETSSAGSSREVGHQARLSWLQRKAPRNPAAEKMRLHGELDVNFNPQLASRETSDSSEPEEAPHTTDRRARRWRRARLGSEEPSKEPSSPSAQLRDLDTHQVSDDLSETDISNEARDPQTLTDTTEEKRRNRLYELAMKMSEKETSSGEDQESEPKTESENQKESLSSEDNSQSVQEELKKKFSAVSLCNISTEVLKVINATEELIAGSTGPWESPQVPPDRQKGMFPRGTDQVRLDEQLTSLEENVYLAAGTVYGLETQLTELEDAARCIHSGTDETHLADLEDQVATAAAQVHHAELQISDIESRISALTIAGLNIAPCVRFTRRRDQKQRTQVQTIDTSRQQRRKLPAPPVKAEKIETSSVTTIKTFNHNFILQGSSTNRTKERKGTTKDLMEPALESAVMY
As to B2, the “fold increase of prey fluorescence at filopodial tips against MYO10^(NO BAIT)” value in assay [2] was 11.8 fold.
